Assay [1] deals with T1, Mcm2-7 replicative DNA helicase, loaded on origin DNA and phosphorylated by DDK (S. cerevisiae, UniProt P29469 1-868; P24279 1-971; P30665 1-933; P29496 1-775; P53091 1-1017; P38132 …).
T1 construct: Mcm2 subunit of Mcm2-7, S. cerevisiae; Mcm3 subunit of Mcm2-7, S. cerevisiae; Mcm4 subunit of Mcm2-7, S. cerevisiae; Mcm5 subunit of Mcm2-7, S. cerevisiae; Mcm6 subunit of Mcm2-7, S. cerevisiae; Mcm7 subunit of Mcm2-7, S. cerevisiae; In the assays the complex was loaded on origin DNA and treated with DDK; also called Mcm2-7 complex; loaded Mcm2-7; source: Mcm2-7/Cdt1 purified as previously …
The assay is described as follows: pull-down; reconstituted DNA replication assay: Mcm2-7 loaded on bead-attached origin DNA (pARS1-Nco) and treated with DDK; S-CDK, Sld2, Dpb11, Pol α-primase, Pol ε, RPA, GINS, Mcm10, Sld3/7 and 130 nM Cdc45 added; 1 h at 25°C; beads washed with buffer H + 0.3 M K-Glut, 0.02% NP-40; proteins released with DNase and detected by immunoblot; amounts relative to wild type. The settings on record: both partners purified. (Immunoblotting shows a protein as a band on a membrane.)

Assay [2] has as its target T1, Mcm2-7 replicative DNA helicase, loaded …. The assay is described as follows: pull-down; CMG formation assay: Mcm2-7 loaded on bead-attached origin DNA (pUC19-ARS1) and treated with DDK; S-CDK, Sld2, Dpb11, Pol ε, GINS, Mcm10, Sld3/7 and 50 nM Cdc45 added, no Pol α-primase; 30 min at 25°C; beads washed with buffer H + 0.3 M KCl, 0.02% NP-40 (salt-stable complexes); proteins released with DNase and detected by immunoblot; amounts relative to wild type. Conditions: both partners purified.

Results on 4 molecules are retold here after publication PMC6435160, “Initiation-specific alleles of the Cdc45 helicase-activating protein” (PLoS ONE, 2019).

B1: GINS complex (Sld5, Psf1, Psf2, Psf3) (complex, S. cerevisiae)
chain 1: MDINIDDILAELDKETTAVDSTKITQGSSSTTHRDANTIVGSSLDLNDKTQIYVSPQQDFSDLMKSWKNERCSPELLPYPHQLMKRLLNRISMQSQLIENISMGFLDMQNASNANPPMPNESKLPLLCMETELERLKFVIRSYIRCRLSKIDKFSLYLRQLNEDENSLISLTDLLSKDEIKYHDTHSLIWLKLVNDSILKYMPEELQAINDTEGSVNMIDEPDWNKFVFIHVNGPPDGKWNEDPLLQENEFGKPCYTVTIPDLKEEVELTIGSIYVMRYEVIRDLLRDDKVALI
chain 2: MYGDLGNKLVLEAKRTKQLYARSNQDVNLPMYHEDIIRNILKEVSNLRKNTEYLKEQQQLGMLDDKVAKCQYFVTLLCMERNKRCLLAYQRLRTDILDSMAWNNNGLDLMSSITFSQQDTNNLSHQEQEYLKEYCDLITDLKSGDLVDIDLSGSLVPPSDVFIDVRVLKDAGEIQTEYGVFNLIKDSQFFVRQSDVERLIQQGYLQKI
chain 3: MSLPAHLQQTFSPEEIQFIVENEPIKIFPRITTRQKIRGDDRGTGNHTRWQLITTDDKALNNMVAMRSTEVVLWIALLLKQQSKCSIVAPQWLTTKELDRKIQYEKTHPDRFSELPWNWLVLARILFNKAKDDFHDPIHELRGKIQDLREIRQIKVLKGLKYLNESHLQLDNLSLLEINELRPFITEIMDKLREIHTASLTAGTENDEEEFNI
chain 4: MGYYDIDDVLADGTEFPCKFQYDIPGLGYLENNPGRPITKNTKLSLPLWLARILAIVGGDEALVDEEPVPFVELLPPDMFSTKVMNAIKTDPVALDLHSINSHFFSLAIKWIMLFSEKELANVVSELLLQRAQELNHHASSLSIDLNADSTGKNSANTNIATSTFLLKLEEMEKEIYKKSHESYKDTKRWMFKK
notes: Sld5 subunit of GINS, S. cerevisiae; Psf1 subunit of GINS, S. cerevisiae; Psf2 subunit of GINS, S. cerevisiae; expressed as Psf2-3C-6xHis-Flag, tag removed with HRV 3C protease; Psf3 subunit of GINS, S. cerevisiae; not shown: 6xHis, C-terminal, cleaved; Flag, C-terminal, cleaved; copies: + + +
As for B1, the binding result in assay [1] is on record as “binds”.

B2: Cdc45-124 (DAH->AAA) (natural protein, S. cerevisiae, UniProt Q08032 1-650, looked up)
chain: MYYGISQFSEAYNKILRNSSSHSSCQLVIFVSCLNIDALCATKMLSLLFKKQLVQSQIVPIFGYSELRRHYSQLDDNINSLLLVGFGGVIDLEAFLEIDPQEYVIDTDEKSGEQSFRRDIYVLAAARPWNLDNIFGSQIIQCFDDGTVDDTLGEQKEAYYKLLELDEESGDDELSGDENDNNGGDDEATDADEVTDEDEEDEDETISNKRGNSSIGPNDLSKRKQRKKQIHEYEGVLEEYYSQGTTVVNSISAQIYSLLSAIGETNLSNLWLNILGTTSLDIAYAQVYNRLYPLLQDEVKRLTPSSRNSVKTPDTLTLNIQPDYYLFLLRHSSLYDSFYYSNYVNAKLSLWNENGKKRLHKMFARMGIPLSTAQETWLYMDHSIKRELGIIFDKNLDRYGLQDIIRDGFVRTLGYRGSISASEFVEALTALLEVGNSTDKDSVKINNDNNDDTDGEEEEDNSAQKLTNLRKRWVSNFWLSWDALDDRKVELLNRGIQLAQDLQRAIFNTGVAILEKKLIKHLRIYRLCVLQDGPDLDLYRNPLTLLRLGNWLIECCAESEDKQLLPMVLASIDENTDTYLVAGLTPRYPRGLDTIHTKKPILNNFSMAFQQITAETDAKVRIDNFESSIIEIRREDLSPFLEKLTLSGLL
notes: Cdc45, Saccharomyces cerevisiae, clustered alanine mutant; mutants are numbered by the position of the first mutated amino acid; also called Cdc45-ts
For B2, the “stable CMG complexes, percent of wild-type Cdc45” value (from here on “stable CMG complexes, percent”) in assay [2] was 67 % of wild-type Cdc45.

B3: Cdc45-238 (EEY->AAA) (natural protein, S. cerevisiae, UniProt Q08032 1-650, looked up)
chain: MYYGISQFSEAYNKILRNSSSHSSCQLVIFVSCLNIDALCATKMLSLLFKKQLVQSQIVPIFGYSELRRHYSQLDDNINSLLLVGFGGVIDLEAFLEIDPQEYVIDTDEKSGEQSFRRDIYVLDAHRPWNLDNIFGSQIIQCFDDGTVDDTLGEQKEAYYKLLELDEESGDDELSGDENDNNGGDDEATDADEVTDEDEEDEDETISNKRGNSSIGPNDLSKRKQRKKQIHEYEGVLAAAYSQGTTVVNSISAQIYSLLSAIGETNLSNLWLNILGTTSLDIAYAQVYNRLYPLLQDEVKRLTPSSRNSVKTPDTLTLNIQPDYYLFLLRHSSLYDSFYYSNYVNAKLSLWNENGKKRLHKMFARMGIPLSTAQETWLYMDHSIKRELGIIFDKNLDRYGLQDIIRDGFVRTLGYRGSISASEFVEALTALLEVGNSTDKDSVKINNDNNDDTDGEEEEDNSAQKLTNLRKRWVSNFWLSWDALDDRKVELLNRGIQLAQDLQRAIFNTGVAILEKKLIKHLRIYRLCVLQDGPDLDLYRNPLTLLRLGNWLIECCAESEDKQLLPMVLASIDENTDTYLVAGLTPRYPRGLDTIHTKKPILNNFSMAFQQITAETDAKVRIDNFESSIIEIRREDLSPFLEKLTLSGLL
notes: as for B2
For B3, the “percent of wild-type Cdc45 association” value in assay [1] was 20 % of wild-type Cdc45 association. The “stable CMG complexes, percent” value in assay [2] is 55 % of wild-type Cdc45.

B4: Cdc45-485 (DDRK->AAAA) (natural protein, S. cerevisiae, UniProt Q08032 1-650, looked up)
chain: MYYGISQFSEAYNKILRNSSSHSSCQLVIFVSCLNIDALCATKMLSLLFKKQLVQSQIVPIFGYSELRRHYSQLDDNINSLLLVGFGGVIDLEAFLEIDPQEYVIDTDEKSGEQSFRRDIYVLDAHRPWNLDNIFGSQIIQCFDDGTVDDTLGEQKEAYYKLLELDEESGDDELSGDENDNNGGDDEATDADEVTDEDEEDEDETISNKRGNSSIGPNDLSKRKQRKKQIHEYEGVLEEYYSQGTTVVNSISAQIYSLLSAIGETNLSNLWLNILGTTSLDIAYAQVYNRLYPLLQDEVKRLTPSSRNSVKTPDTLTLNIQPDYYLFLLRHSSLYDSFYYSNYVNAKLSLWNENGKKRLHKMFARMGIPLSTAQETWLYMDHSIKRELGIIFDKNLDRYGLQDIIRDGFVRTLGYRGSISASEFVEALTALLEVGNSTDKDSVKINNDNNDDTDGEEEEDNSAQKLTNLRKRWVSNFWLSWDALAAAAVELLNRGIQLAQDLQRAIFNTGVAILEKKLIKHLRIYRLCVLQDGPDLDLYRNPLTLLRLGNWLIECCAESEDKQLLPMVLASIDENTDTYLVAGLTPRYPRGLDTIHTKKPILNNFSMAFQQITAETDAKVRIDNFESSIIEIRREDLSPFLEKLTLSGLL
notes: as for B2
Take B4: the “percent of wild-type Cdc45 association” value in assay [1] was 27 % of wild-type Cdc45 association. In assay [2], the “stable CMG complexes, percent” value was 43 % of wild-type Cdc45.
